Measurements taken from the DeepSol protein solubility set.

assay: soluble on expression in E. coli; label from the status in PepcDB or PDB records

Sequence	soluble on expression in E. coli
MGLTAGIVGLPNVGKSTLFNAITQAGAESANYPFCTIDPNVGIVEVPDERLNKLTELVEPKKTVPTVFEFTDIAGIVKGASKGEGLGNKFLSHIRQVDAICQVVRCFEDENITHVSGKVDPIDDIETINLELILADLESVDKRIERVAKLARQKDKEAVYEHEILVRLKEAFEEGKPARTVEFTEEQMKIVKGLHLLTTKEMLYVANVSEDDVIDPSENKYVQMVKEFAANENSQVIVVCAKIESEIAELDEEEKKVFLEELGIEESGLDQLIRAAYDLLGLATYFTAGVQEVRAWTFKQGMKAPQCAGVIHTDFERGFIRAETVSYEDLMTNGSMTAAKEAGKVRLEGKEYIVKDGDVMHFRFNV	soluble
MDTQTLNSDLRVFMHHIYEFEKGVRSMVLATLANDDIPYAEERLRSRQIPYFAQPTPNTERTNLFFGCKECMEAIRLFVSGRSLNSLTPEEDFIIGAMLGYDICRQCERYCRRKSNS	soluble
MLAFFRRFMSTTTVTAQPVLPWFRNVPLAPADPILGVTEAFKKDTNPNKINLGVGAYRDDQGKPFVLRAVREAEQQIIDAKMDKEYSTITGVPEFAPLAAKLAFGDNSEVIRDGRVFTTQSISGTGALRIGGQFVEKFIPSKTLFYPTPTWANHLPVFRNSGLSIQPYRYYNQETLGFDVEGALEDISKMPEGSVILLHACAHNPTGVDPTKEQWKKLSQVLKERKILPFFDMAYQGFASGDVDDDAFALRHFIEQGHNVLVAQSFAKNMGLYGERVGAFSIVCDSAEEAIRVGSQMRIIIRPMISMPPLHGARIASRILSNPELKKSWLEDVKLMADRIKSMRTALKDGLKAEGSTLNWDHITNQIGMFCFTGINEKQVQKLIKEHSVYLTNDGRISISGINTGNVAYLAKALHDVTK	not soluble
MWGWKAVGIKIDPSVSLEQAREIIKEAGFQEYVVNPEYIIFKQTGTQLTIKGEELPIEVVIGSAESGIFLQARYDTFVLFDSGDLAKLADELVFKLSV	not soluble
SSGIHVALVTGGNKGIGLAIVRDLCRLFSGDVVLTARDVTRGQAAVQQLQAEGLSPRFHQLDIDDLQSIRALRDFLRKEYGGLDVLVNNAGIAFKVADPTPFHIQAEVTMKTNFFGTRDVCTELLPLIKPQGRVVNVSSIMSVRALKSCSPELQQKFRSETITEEELVGLMNKFVEDTKKGVHQKEGWPSSAYGVTKIGVTVLSRIHARKLSEQRKGDKILLNACCPGWVRTDMAGPKATKSPEEGAETPVYLALLPPDAEGPHGQFVSEKRVEQW	soluble
MGSDKIHHHHHHMKAISANLQRLLAESGMKQSHLATILNIPTSSLNEYVKGKSLPKIGNIQKIADYFGLQKSDIDPRFASKKDSSTLDKINHIAKQLEMKRQIKVLDFCYQQSKEQDETASLSASDETTEDKVADKSNHTQYQKVVDSFIAKELNDQTIIHWDNVIKAKDLYQTFGRQYENIQIYGEVSAGTGIWVGHEKQETIKYPIPIPEHDIALIVNGNSMEPLFYNGDVIFVKKTKAIHHGQIIVVIVNNEAYVKKLYRKNKEIRLISLNPDYDDIILKEDDTIEVIGTVIT	not soluble
MGSDKIHHHHHHMLKSQEIRQKAPELDSLRLGSGWKSEELNKAQIIIESSFGHSHPGSAHLDTLVDEAFKSIDDNGGRGAKYFVTDICDGETQGHDGMNYSLASRDIMTNLMEIHVQATPFDAGIFIASCDKAVPAHLMAIARLDMPSILVPGGIMNAGPNMLTLEQIGTYNAQYERGEITKEQYEHYKQNACPSCGACSFMGTASTMQVMSEALGIALPGTALIPVTSKELKLAAKNAGKQILKLIELNIKPSEIMTKKAFENAIMVHAAIAGSSNCLLHIPAIAHELGMDIEPELFDEIHKKIPYILNIRPSGFYPGSYFWNAGGVPAIMEEIKEFLHLDVMTVTGKTLGENLEDLKNSGYYEEHDKLITSLGIKKEDVIRTKENPIQSQGAIAILKGNLAPGGAVVKHSAISKKLMQVVLKARVFNCEEDAIKSVLTKNIKPGDAVFVRYEGPKGSGMPEMFYTTEAIASDHELVDSTALITDGRFSGATRGPAIGHVSPEASEGGPIAFVQEGDLIKIDIPARKLDIIGTNGIEKSEKEIENILKERSQNWVKPAPRYTKGILGLYTRCASSPMKGGYME	not soluble
MGHHHHHHSHMRLPSKPYSTLPIFSLGPSALQRGESSMRSEKPSTAHHRPLRSIARFSSKSKSMDKSDEELQFPKELMEDWSTMEVCVDCKKFISEIISSSRRSLVLANKRARLKRKTQSFYMSSPGPSEYCPSERTISEI	not soluble
MVAATSQNTFDSPRSPLYNFTMDIRPLSDVAGVILVGGRSRRMGRDKALIPLGGKPLVERVIDAFRPLFERILLVGDRGERFASYGLPVFPDIHPGSALGGLYTGLVRAGTPHVFVSACDVPWPDPRVIARLCSLREGFDVVVPRTVGGSEPLFAVYGTGCLPAMERMLREGNYRIYDFYPEVRTRYVEQAELADLVTPARTFVNVNTPEEFETIRNREEGMAIKAVSFVAKSGTGKTTLLEKVIAELKGRGYRIGVIKHDAHRFDIDHPGKDSHRLAAAGADTMLIASPEKLALVKKYDESPPLDELLATYFGDVDIVLTEGFKKSSLPKIEVHRMERSATLLCRGEEHDPTLVAVASDAALALDVPVFDLNNPAQVADFVERTFLAAGAALEHHHHHH	soluble
MKFQWIGVLVFIGIVNCLISSQKLTVKENEERLKSCGNTFLPIPSINQTGKGFGFFNDKTYTYNSKSGWLLLAGHKNRSTRVYATAFPISEYHILISSRVMLTAEHKWIMNGKPFDKNNCSGGRHLDVPRDVLDNILFWYGKKPKKADISKARMFFACDNQDLKAYPVLIELNKTSKRPWAFNGVPCLADETTSSKLGDVVHFYGYSDYDLLHHKLLIKAVKDGGICTETYYTEEVGGPLVQNVSGKATVIGLKAPGSRENCELFYDLSKLQKEICDYSGVCGYEKPTLTTEPTPVTTEKSTVSTTISTSLETTIMQASSASPTSIKPSTTTEPSPLQASSKPATEPLLRPESTRRASSSASSKPEVQTTIPTEIRTSSLPTPFLKTSTTVTTTTPEPATVDYGDDHDMIGLDDEYGDESNKGVGKIDRIVGFFVLLLVIE	not soluble
MSLLDIIFPPNNNDDDFYGQHFSLIDSIIVKVAQDSNLSQSLRVYQYLYSWRLFGCMVAVVNNNKTLELGDKRGAIEALYEFITRFRIENPTGDVERKVKLKILEIYMIILNLLKSFENNQDQWFLKTNSYKETTTTRRRSIVSLNDLKLEYLEWLKNLDEDVSMFTEGHHHHHH	not soluble
MGSSHHHHHHSSGLVPRGSVGGCLAKDGLQQSKCPDTTPKRRRASSLSRDAERRAYQWCREYLGGAWRRVQPEELRVYPVSGGLSNLLFRCSLPDHLPSVGEEPREVLLRLYGAILQGVDSLVLESVMFAILAERSLGPQLYGVFPEGRLEQYIPSRPLKTQELREPVLSAAIATKMAQFHGMEMPFTKEPHWLFGTMERYLKQIQDLPPTGLPEMNLLEMYSLKDEMGNLRKLLESTPSPVVFCHNDIQEGNILLLSEPENADSLMLVDFEYSSYNYRGFDIGNHFCEWVYDYTHEEWPFYKARPTDYPTQEQQLHFIRHYLAEAKKGETLSQEEQRKLEEDLLVEVSRYALASHFFWGLWSILQASMSTIEFGYLDYAQSRFQFYFQQKGQLTSVHSSS	soluble
MGSDKIHHHHHHMRSKGVMIPRIMSTQHPDNYSIPFFASSPILGGEDEITEAFYAFSVLGADEQMWDFEGKEVDEFVVKKLLERYPTFFKENILGEDLRLTPRVPNPSVEKAEAKLLLETLQGITRAADYARVFYLDNIAPIFEVILPMTTSLAEMLRVHELYRKIVSLSGEVIYDVTVKEWIGEFYPKEINVIPLFETKVALLKSGRIIREYIGRKRPEYLRVFFARSDPAMNYGLLSAVTYVKKALEQVGEVEEETSTPIYPIIGVGSPPFRGGMRPENVKKVLKEYPSVQTYTIQSSFKYDHPTKDVVKAVEIVKSKKREAPDPLDIPEFIQLYEIEYQKQLKILAPYIRNIVTRIPDRRKRKLHIGLFGYSRNVGGLSLPRVIKFTASLYSIGLPPELLGLNELSDNQLDSISEYYKNLYDDLEFAMRFFSFKVAERVGLRELSEKVKEFKPDIDDEYVREAELVFRGQGDVMKLAQIRGFLG	not soluble
IVGGYNCKDGEVPWQALLINEENEGFCGGTILSEFYILTAAHCLYQAKRFKVRVGDRNTEQEEGGEAVHEVEVVIKHNRFTKETYDFDIAVLRLKTPITFRMNVAPASLPTAPPATGTKCLISGWGNTASSGADYPDELQCLDAPVLSQAKCEASYPGKITSNMFCVGFLEGGKDSCQGDSGGPVVCNGQLQGVVSWGDGCAQKNKPGVYTKVYNYVKWIKNTIAANS	soluble
MAIFRDYSINPTEHDRTIGDRRRHRELVEKAIKDNLADIVSEESIIGESKSKKIKIPIRGLKEYKFLYGNNSSSVGSGTGNEKKGDIIGKEQMGNGSKGKGKGAGNSEGEDIYETEVTIEEVFSYLLEDLNLPNLDKKKYSEIVTDSSKKKAGYQKYGIRPRLAKKRTVIEKIKREQSRKRAIKELGKDDKVERLPFSEEDLRYHRIKEKPKKECNAAIMCVMDCSGSMDSTKKYLARSFFFILSKFIRMKYVNVEIAFISHSTVGREVTETEFFHKVESGGTYISSGLNTAMDIIKERFNPATWNIYGFYVSDGDNFTEDDERAIKSMRKFCEIANMIGYAEILPYSYSGTMKYKFDNYVKDKNFISSTIRNKEDLWPVLKKMLIKELKELEHHHHHH	soluble
MGSDKIHHHHHHMKILQIVPSISLIYGGPSQMVLGLAPALVKEGVEVTILTTDSNGDNGQTPLDVPLNRPIKQDGYEIIYFRCAPFRRYKFSLDLLKWLKRHAHEFDLAHIHALFSPIISAAAIVCRQQKLPYIFRPLGTLDPADLRKKKQLKQLYVAIIERQNLASAAAIHFTSEQEAKISERFGVSTPDLVIPLGVIPRQSSLKNVCSQLEIPKDVPLVLFMSRIDPKKGLNLLIPALEKLLAVGYKFHFVLAGTNPQDPDYEQKIISQIQNSPLRSHTTITGFVTGELKVSLLQAADLFVLPSYYENFGIAVAEAMVAGVPVVISDQVHICQQIRDSESGWVGATDVQALVELLQAALQNPAERQRRGLNAQKYALENFSWDAIARQTIQAYQKILANK	not soluble
MSLTDAKHGETIQGPMSYGHWIAGRETHSGGASFPSHNPTTGAEWGRFALGSQDTVGDAVAAATAAFEGAEWSSLSPTRRGRLMMRWGDAIAQHAEKLGALETSQNGKLLSEMVLQARIVPDWLYYYGGLADKIEGRVIPVERRSVLNYTRREALGVVGVIMPWNSPLFLTTMAVAPALAAGNTVVIKPSEVSSASIIEAVKLAEQIGFPRGVLNVVTGGRETAEALIDHCGVAKIAFTGGVEAGRAVGVRAARRMAQVTLELGGKSANIVFPDADLAQARAGLLAGIFAAAGQTCVAGSRAFVHRSIHDRLLAELAERAKNIRIGNPLDPATQMGPVATKAQLDKDESMVRRAIDEGAQVVHGGCRAAVDGFPGGYFYTPTILTGVSPGSYIAQNEVFGPVLSVIPFDDEDEVIALANGTGFGLAAGIWSLNIRQAHRVANQLQAGTVWVNMYRAMSFNSPFGGYKASGIGRQNGIEAIDSYLQTKSIWCELSQEEGHHHHHH	not soluble
